# Source: patent publication US20110040072A1, “MONO AND DI-SUBSTITUTED OXYCODONE COMPOUNDS AND COMPOSITIONS” (SHIRE LLC, priority 2006, published 2011)
# Experiments:
# [1] = Intranasal bioavailability of oxycodone conjugates in rats; conditions: for AUC % (Intranasal Bioavailability): reference = 100
# [2] = Oral bioavailability / oral pharmacokinetics of oxycodone conjugates in rats; conditions: for AUC % (Oral Bioavailability): reference = 100
# [3] = Intravenous bioavailability of oxycodone conjugates in rats
# [4] = background statement; cited from earlier work
# [5] = relative to OXY = 100, n = 4 animals, analysis by LC-MS
Compound,"Oral (% AUC) [2, 5] [% AUC]",also measured
"COc1ccc2c3c1O[C@H]1C(OC(=O)[C@@H](NC(=O)[C@H](CC(=O)O)NC(=O)[C@@H](N)CCC(=O)O)C(C)C)=CC[C@@]4(OC(=O)[C@@H](NC(=O)[C@H](CC(=O)O)NC(=O)[C@@H](N)CCC(=O)O)C(C)C)[C@@H](C2)N(C)CC[C@]314 [(EDV)2-OC, [Glu-Asp-Val]2-OC]",,AUC % (Intranasal Bioavailability) [1]: 20%; AUC % (Oral Bioavailability) [2]: 73%
"COc1ccc2c3c1O[C@H]1C(OC(=O)[C@@H](NC(=O)CNC(=O)[C@@H](N)CO)C(C)C)=CC[C@@]4(OC(=O)[C@@H](NC(=O)CNC(=O)[C@@H](N)CO)C(C)C)[C@@H](C2)N(C)CC[C@]314 [(SGV)2-OC, [Ser-Gly-Val]2-OC]",,AUC % (Intranasal Bioavailability) [1]: 64%; AUC % (Intravenous Bioavailability) ([3]; reference = 100): 52%; AUC % (Oral Bioavailability) [2]: 103%
"COc1ccc2c3c1O[C@H]1C(OC(=O)[C@@H](NC(=O)[C@H](CCC(=O)O)NC(=O)[C@@H](N)C(C)C)C(C)C)=CC[C@@]4(OC(=O)[C@@H](NC(=O)[C@H](CCC(=O)O)NC(=O)[C@@H](N)C(C)C)C(C)C)[C@@H](C2)N(C)CC[C@]314 [(VEV)2-OC, [Val-Glu-Val]2-OC]",,AUC % (Intranasal Bioavailability) [1]: 39%; AUC % (Oral Bioavailability) [2]: 104%
COc1ccc2c3c1O[C@H]1C(OC(=O)[C@@H](NC(=O)[C@H](C)NC(=O)[C@H](C)N)C(C)C)=CC[C@@]4(O)[C@@H](C2)N(C)CC[C@]314 [Ala-Ala-Val-OC],85,
COc1ccc2c3c1O[C@H]1C(OC(=O)[C@@H](NC(=O)[C@H](CC(=O)O)NC(=O)[C@@H](N)CC(=O)O)C(C)C)=CC[C@@]4(O)[C@@H](C2)N(C)CC[C@]314 [Asp-Asp-Val-OC],40,
CC[C@H](C)[C@H](NC(=O)[C@H](CCC(=O)O)NC(=O)[C@@H](N)CCC(=O)O)C(=O)OC1=CC[C@@]2(O)[C@H]3Cc4ccc(OC)c5c4[C@@]2(CCN3C)[C@H]1O5 [Glu-Glu-Ile-OC],179,
COc1ccc2c3c1O[C@H]1C(OC(=O)[C@H](CC(C)C)NC(=O)[C@H](CCC(=O)O)NC(=O)[C@@H](N)CCC(=O)O)=CC[C@@]4(O)[C@@H](C2)N(C)CC[C@]314 [Glu-Glu-Leu-OC],80,
COc1ccc2c3c1O[C@H]1C(OC(=O)[C@H](Cc4ccccc4)NC(=O)[C@H](CCC(=O)O)NC(=O)[C@@H](N)CCC(=O)O)=CC[C@@]4(O)[C@@H](C2)N(C)CC[C@]314 [Glu-Glu-Phe-OC],49,
COc1ccc2c3c1O[C@H]1C(OC(=O)[C@@H]4CCCN4C(=O)[C@H](CCC(=O)O)NC(=O)[C@@H](N)CCC(=O)O)=CC[C@@]4(O)[C@@H](C2)N(C)CC[C@]314 [Glu-Glu-Pro-OC],71,
COc1ccc2c3c1O[C@H]1C(OC(=O)[C@@H](NC(=O)[C@H](CCC(=O)O)NC(=O)[C@@H](N)CCC(=O)O)C(C)C)=CC[C@@]4(O)[C@@H](C2)N(C)CC[C@]314 [Glu-Glu-Val-OC],55,
CC[C@H](C)[C@H](NC(=O)CNC(=O)CN)C(=O)OC1=CC[C@@]2(O)[C@H]3Cc4ccc(OC)c5c4[C@@]2(CCN3C)[C@H]1O5 [Gly-Gly-Ile-OC],,"Oral (% AUC) ([2]; relative to OXY = 100, dosed at 40% higher levels than calculated, n = 4 animals, LC-MS): 224 % AUC"
COc1ccc2c3c1O[C@H]1C(OC(=O)[C@H](Cc4ccccc4)NC(=O)CNC(=O)CN)=CC[C@@]4(O)[C@@H](C2)N(C)CC[C@]314 [Gly-Gly-Phe-OC],163,
COc1ccc2c3c1O[C@H]1C(OC(=O)[C@@H](NC(=O)CNC(=O)CN)C(C)C)=CC[C@@]4(O)[C@@H](C2)N(C)CC[C@]314 [Gly-Gly-Val-OC],123,
CC[C@H](C)[C@H](N)C(=O)N[C@H](C(=O)N[C@H](C(=O)OC1=CC[C@@]2(O)[C@H]3Cc4ccc(OC)c5c4[C@@]2(CCN3C)[C@H]1O5)[C@@H](C)CC)[C@@H](C)CC [Ile-Ile-Ile-OC],83,
COc1ccc2c3c1O[C@H]1C(OC(=O)[C@@H](NC(=O)[C@H](CC(C)C)NC(=O)[C@@H](N)CC(C)C)C(C)C)=CC[C@@]4(O)[C@@H](C2)N(C)CC[C@]314 [Leu-Leu-Val-OC],81,
CC[C@H](C)[C@H](NC(=O)[C@H](CCCCN)NC(=O)[C@@H](N)CCCCN)C(=O)OC1=CC[C@@]2(O)[C@H]3Cc4ccc(OC)c5c4[C@@]2(CCN3C)[C@H]1O5 [Lys-Lys-Ile-OC],74,

Compound,"Oral (% AUC) [2, 5] [% AUC]",also measured
COc1ccc2c3c1O[C@H]1C(OC(=O)[C@H](CC(C)C)NC(=O)[C@H](CCCCN)NC(=O)[C@@H](N)CCCCN)=CC[C@@]4(O)[C@@H](C2)N(C)CC[C@]314 [Lys-Lys-Leu-OC],46,
COc1ccc2c3c1O[C@H]1C(OC(=O)[C@H](Cc4ccccc4)NC(=O)[C@H](CCCCN)NC(=O)[C@@H](N)CCCCN)=CC[C@@]4(O)[C@@H](C2)N(C)CC[C@]314 [Lys-Lys-Phe-OC],37,
COc1ccc2c3c1O[C@H]1C(OC(=O)[C@@H](NC(=O)[C@H](CCCCN)NC(=O)[C@@H](N)CCCCN)C(C)C)=CC[C@@]4(O)[C@@H](C2)N(C)CC[C@]314 [Lys-Lys-Val-OC],108,
"COc1ccc2c3c1O[C@H]1C(=O)CC[C@@]4(O)[C@@H](C2)N(C)CC[C@]314 [OXY, oxycodone]",100,Therapeutic plasma concentration [4]: 10 to 100 ng/mL; toxic plasma concentration [4]: greater than 200 ng/mL; AUC % (Oral Bioavailability) [2]: 100%
"COc1ccc2c3c1O[C@H]1C(OC(=O)[C@H](CC(C)C)NC(=O)[C@@H]4CCCN4C(=O)[C@@H]4CCCN4)=CC[C@@]4(OC(=O)[C@H](CC(C)C)NC(=O)[C@@H]5CCCN5C(=O)[C@@H]5CCCN5)[C@@H](C2)N(C)CC[C@]314 [[PPL]2-OC, [Pro-Pro-Leu]2-OC]",,bioavailability by the intranasal route ([1]; versus oxycodone): substantially decreased; bioavailability by the intravenous route ([3]; versus oxycodone): substantially decreased
OC-Succcinate,79,
Phe-Phe-Ile-OC,59,
Phe-Phe-Val-OC,32,
Pro-Pro-Ile-OC,85,AUC % (Oral Bioavailability) [2]: 85%
Pro-Pro-Val-OC,152,AUC % (Oral Bioavailability) [2]: 152%
Tyr-Tyr-Ile-OC,85,
Tyr-Tyr-Phe-OC,73,
Tyr-Tyr-Pro-OC,59,
Tyr-Tyr-Val-OC,124,AUC % (Oral Bioavailability) [2]: 124%
Val-Val-Phe-OC,120,
